Source: paper PMC9174231

Molecular target: HA-tagged DDX6 (designed around the RecA2 region) (UniProt P26196)
Experiment: grating-coupled interferometry (GCI); Creoptix WAVEsystem; DDX6 protein immobilised on the sensor chip by amine coupling, 4E-T protein as analyte; PBS/0.01% Tween20; regeneration-free kinetics; blank without DDX6 as reference

Chain of UniProt P26196 (P26196 whole entry): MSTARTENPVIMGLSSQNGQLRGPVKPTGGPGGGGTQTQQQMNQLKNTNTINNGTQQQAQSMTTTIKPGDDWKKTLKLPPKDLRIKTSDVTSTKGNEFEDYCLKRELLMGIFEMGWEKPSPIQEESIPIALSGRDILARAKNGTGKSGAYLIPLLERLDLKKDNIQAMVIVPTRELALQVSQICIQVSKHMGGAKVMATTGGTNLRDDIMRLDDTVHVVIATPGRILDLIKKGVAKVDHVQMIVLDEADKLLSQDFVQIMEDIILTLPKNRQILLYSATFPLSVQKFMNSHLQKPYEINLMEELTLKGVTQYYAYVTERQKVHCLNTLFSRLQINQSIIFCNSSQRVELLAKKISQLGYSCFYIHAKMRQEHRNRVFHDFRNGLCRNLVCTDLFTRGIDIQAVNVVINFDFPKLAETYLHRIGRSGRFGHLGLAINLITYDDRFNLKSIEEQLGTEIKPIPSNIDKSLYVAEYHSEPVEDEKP

## HA-tagged 4E-T (designed around the CHD region) (from UniProt Q9NRA8 1-985) (domain or fragment)
  Kd: 774 nM
  koff: 0.000278 s⁻¹
  kon: 359 M⁻¹ s⁻¹
